Bridges are numbered along the chain shown (N, C = ends). Where no end group is shown, it is not given here.
T1: ectodomain of MET fused to Fc (UniProt P08581 25-932)
T1 chain: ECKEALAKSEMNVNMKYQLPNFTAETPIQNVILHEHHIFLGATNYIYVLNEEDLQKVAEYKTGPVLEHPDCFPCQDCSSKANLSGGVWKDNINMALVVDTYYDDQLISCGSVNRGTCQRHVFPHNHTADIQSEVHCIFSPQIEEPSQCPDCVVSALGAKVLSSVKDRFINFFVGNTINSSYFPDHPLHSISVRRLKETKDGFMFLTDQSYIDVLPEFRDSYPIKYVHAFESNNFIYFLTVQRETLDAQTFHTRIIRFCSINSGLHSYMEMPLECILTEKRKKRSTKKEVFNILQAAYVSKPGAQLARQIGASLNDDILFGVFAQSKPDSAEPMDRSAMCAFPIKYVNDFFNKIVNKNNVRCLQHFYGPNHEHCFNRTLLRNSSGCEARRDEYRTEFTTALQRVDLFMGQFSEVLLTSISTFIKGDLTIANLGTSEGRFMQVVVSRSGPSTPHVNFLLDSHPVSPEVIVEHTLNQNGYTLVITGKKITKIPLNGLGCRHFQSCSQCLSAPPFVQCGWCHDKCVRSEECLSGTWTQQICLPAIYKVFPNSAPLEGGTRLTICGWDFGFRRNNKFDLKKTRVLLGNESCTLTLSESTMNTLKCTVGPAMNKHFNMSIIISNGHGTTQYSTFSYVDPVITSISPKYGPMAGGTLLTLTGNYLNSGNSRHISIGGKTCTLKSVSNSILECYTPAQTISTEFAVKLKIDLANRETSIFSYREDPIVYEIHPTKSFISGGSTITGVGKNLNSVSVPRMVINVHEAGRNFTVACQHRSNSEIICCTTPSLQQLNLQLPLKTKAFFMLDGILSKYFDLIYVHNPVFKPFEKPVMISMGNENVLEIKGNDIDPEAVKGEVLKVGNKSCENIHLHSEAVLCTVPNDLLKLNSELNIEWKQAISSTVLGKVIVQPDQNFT

B1: 14–6 (peptide)
chain: {CH2CO}-YIEWYVYDSKSWVYVRCG-NH2
modifications: thioether N-17
SMILES: CC[C@H](C)[C@@H]1NC(=O)[C@H](Cc2ccc(O)cc2)NC(=O)CSC[C@@H](C(=O)NCC(N)=O)NC(=O)[C@H](CCCNC(=N)N)NC(=O)[C@H](C(C)C)NC(=O)[C@H](Cc2ccc(O)cc2)NC(=O)[C@H](C(C)C)NC(=O)[C@H](Cc2c[nH]c3ccccc23)NC(=O)[C@H](CO)NC(=O)[C@H](CCCCN)NC(=O)[C@H](CO)NC(=O)[C@H](CC(=O)O)NC(=O)[C@H](Cc2ccc(O)cc2)NC(=O)[C@H](C(C)C)NC(=O)[C@H](Cc2ccc(O)cc2)NC(=O)[C@H](Cc2c[nH]c3ccccc23)NC(=O)[C@H](CCC(=O)O)NC1=O
B2: 14–5 (peptide)
chain: {CH2CO}-YLSWKYYDSSDWVILSCG-NH2
modifications: thioether N-17
SMILES: CC[C@H](C)[C@@H]1NC(=O)[C@H](C(C)C)NC(=O)[C@H](Cc2c[nH]c3ccccc23)NC(=O)[C@H](CC(=O)O)NC(=O)[C@H](CO)NC(=O)[C@H](CO)NC(=O)[C@H](CC(=O)O)NC(=O)[C@H](Cc2ccc(O)cc2)NC(=O)[C@H](Cc2ccc(O)cc2)NC(=O)[C@H](CCCCN)NC(=O)[C@H](Cc2c[nH]c3ccccc23)NC(=O)[C@H](CO)NC(=O)[C@H](CC(C)C)NC(=O)[C@H](Cc2ccc(O)cc2)NC(=O)CSC[C@@H](C(=O)NCC(N)=O)NC(=O)[C@H](CO)NC(=O)[C@H](CC(C)C)NC1=O
B3: 14–4 (peptide)
chain: {CH2CO}-YYSWTGRDFDAVKWNKCG-NH2
modifications: thioether N-17
SMILES: CC(C)[C@@H]1NC(=O)[C@H](C)NC(=O)[C@H](CC(=O)O)NC(=O)[C@H](Cc2ccccc2)NC(=O)[C@H](CC(=O)O)NC(=O)[C@H](CCCNC(=N)N)NC(=O)CNC(=O)[C@H]([C@@H](C)O)NC(=O)[C@H](Cc2c[nH]c3ccccc23)NC(=O)[C@H](CO)NC(=O)[C@H](Cc2ccc(O)cc2)NC(=O)[C@H](Cc2ccc(O)cc2)NC(=O)CSC[C@@H](C(=O)NCC(N)=O)NC(=O)[C@H](CCCCN)NC(=O)[C@H](CC(N)=O)NC(=O)[C@H](Cc2c[nH]c3ccccc23)NC(=O)[C@H](CCCCN)NC1=O
B4: 12–5 (peptide)
chain: {CH2CO}-YLVWHEYDSKKWYFSLCG-NH2
modifications: thioether N-17
SMILES: CC(C)C[C@@H]1NC(=O)[C@H](CO)NC(=O)[C@H](Cc2ccccc2)NC(=O)[C@H](Cc2ccc(O)cc2)NC(=O)[C@H](Cc2c[nH]c3ccccc23)NC(=O)[C@H](CCCCN)NC(=O)[C@H](CCCCN)NC(=O)[C@H](CO)NC(=O)[C@H](CC(=O)O)NC(=O)[C@H](Cc2ccc(O)cc2)NC(=O)[C@H](CCC(=O)O)NC(=O)[C@H](Cc2c[nH]cn2)NC(=O)[C@H](Cc2c[nH]c3ccccc23)NC(=O)[C@H](C(C)C)NC(=O)[C@H](CC(C)C)NC(=O)[C@H](Cc2ccc(O)cc2)NC(=O)CSC[C@@H](C(=O)NCC(N)=O)NC1=O
B5: 14–3 (peptide)
chain: {CH2CO}-YLSWSEFDSKNWSLAYCG-NH2
modifications: thioether N-17
SMILES: CC(C)C[C@@H]1NC(=O)[C@H](CO)NC(=O)[C@H](Cc2c[nH]c3ccccc23)NC(=O)[C@H](CC(N)=O)NC(=O)[C@H](CCCCN)NC(=O)[C@H](CO)NC(=O)[C@H](CC(=O)O)NC(=O)[C@H](Cc2ccccc2)NC(=O)[C@H](CCC(=O)O)NC(=O)[C@H](CO)NC(=O)[C@H](Cc2c[nH]c3ccccc23)NC(=O)[C@H](CO)NC(=O)[C@H](CC(C)C)NC(=O)[C@H](Cc2ccc(O)cc2)NC(=O)CSC[C@@H](C(=O)NCC(N)=O)NC(=O)[C@H](Cc2ccc(O)cc2)NC(=O)[C@H](C)NC1=O
B6: aML5 (peptide)
peptide: {CH2CO}-YISWNEFNSPNWRFITCG-NH2
modifications: thioether N-17
SMILES: CC[C@H](C)[C@@H]1NC(=O)[C@H](Cc2ccc(O)cc2)NC(=O)CSC[C@@H](C(=O)NCC(N)=O)NC(=O)[C@H]([C@@H](C)O)NC(=O)[C@H]([C@@H](C)CC)NC(=O)[C@H](Cc2ccccc2)NC(=O)[C@H](CCCNC(=N)N)NC(=O)[C@H](Cc2c[nH]c3ccccc23)NC(=O)[C@H](CC(N)=O)NC(=O)[C@@H]2CCCN2C(=O)[C@H](CO)NC(=O)[C@H](CC(N)=O)NC(=O)[C@H](Cc2ccccc2)NC(=O)[C@H](CCC(=O)O)NC(=O)[C@H](CC(N)=O)NC(=O)[C@H](Cc2c[nH]c3ccccc23)NC(=O)[C@H](CO)NC1=O
notes: Benchmark macrocycle from an earlier RaPID selection; measured again here; also called 17-mer aML5
B7: 14–2 (peptide)
chain: {CH2CO}-YYSWSGKDVDSVIWNNCG-NH2
modifications: thioether N-17
SMILES: CC[C@H](C)[C@@H]1NC(=O)[C@H](C(C)C)NC(=O)[C@H](CO)NC(=O)[C@H](CC(=O)O)NC(=O)[C@H](C(C)C)NC(=O)[C@H](CC(=O)O)NC(=O)[C@H](CCCCN)NC(=O)CNC(=O)[C@H](CO)NC(=O)[C@H](Cc2c[nH]c3ccccc23)NC(=O)[C@H](CO)NC(=O)[C@H](Cc2ccc(O)cc2)NC(=O)[C@H](Cc2ccc(O)cc2)NC(=O)CSC[C@@H](C(=O)NCC(N)=O)NC(=O)[C@H](CC(N)=O)NC(=O)[C@H](CC(N)=O)NC(=O)[C@H](Cc2c[nH]c3ccccc23)NC1=O
B8: 12–1 (peptide)
chain: {CH2CO}-YISWFAYASKDWFVRPCG-NH2
modifications: thioether N-17
SMILES: CC[C@H](C)[C@@H]1NC(=O)[C@H](Cc2ccc(O)cc2)NC(=O)CSC[C@@H](C(=O)NCC(N)=O)NC(=O)[C@@H]2CCCN2C(=O)[C@H](CCCNC(=N)N)NC(=O)[C@H](C(C)C)NC(=O)[C@H](Cc2ccccc2)NC(=O)[C@H](Cc2c[nH]c3ccccc23)NC(=O)[C@H](CC(=O)O)NC(=O)[C@H](CCCCN)NC(=O)[C@H](CO)NC(=O)[C@H](C)NC(=O)[C@H](Cc2ccc(O)cc2)NC(=O)[C@H](C)NC(=O)[C@H](Cc2ccccc2)NC(=O)[C@H](Cc2c[nH]c3ccccc23)NC(=O)[C@H](CO)NC1=O
B9: macrocyclic peptide 10-2 (peptide)
chain: {CH2CO}-YWYYTFDGRWKEYGAACG-NH2
modifications: thioether N-17
SMILES: C[C@@H]1NC(=O)CNC(=O)[C@H](Cc2ccc(O)cc2)NC(=O)[C@H](CCC(=O)O)NC(=O)[C@H](CCCCN)NC(=O)[C@H](Cc2c[nH]c3ccccc23)NC(=O)[C@H](CCCNC(=N)N)NC(=O)CNC(=O)[C@H](CC(=O)O)NC(=O)[C@H](Cc2ccccc2)NC(=O)[C@H]([C@@H](C)O)NC(=O)[C@H](Cc2ccc(O)cc2)NC(=O)[C@H](Cc2ccc(O)cc2)NC(=O)[C@H](Cc2c[nH]c3ccccc23)NC(=O)[C@H](Cc2ccc(O)cc2)NC(=O)CSC[C@@H](C(=O)NCC(N)=O)NC(=O)[C@H](C)NC1=O

Molecular target: T1, ectodomain of MET fused to Fc
Test: SPR
Details: not given

Binder	koff [s⁻¹]
B1	0.00564
B2	0.00836
B3	0.00198
B4	0.002
B5	0.00297
{CH2CO}-YWVYGFGKLNNDWRAFCG (thioether N-17 (inferred)) [14–1]	0.000739
B6	0.00606
B7	0.00182

Molecular target: T1, ectodomain of MET fused to Fc
Test: SPR
Details: not given
Remark: another data set of the same source

Binder	Kd [µM]
B1	0.0315
B2	0.0647
{CH2CO}-YFYYNWTNVAKWAKTLCG (thioether N-17 (inferred)) [6–2]	0.102
B3	0.00249
B4	0.0154
B8	0.032
B5	0.035
{CH2CO}-YWVYGFGKLNNDWRAFCG (thioether N-17 (inferred)) [14–1]	0.00287
{CH2CO}-YNCLWVECKIVLPNGRCG (disulfide 8-17; thioether N-3) [12–4]	0.0158
B7	0.00393

Each binder was assayed against T2, ectodomain of MET (hepatocyte growth factor receptor) fused to Fc (UniProt P08581 25-932) (assay: SPR; macrocyclic peptides on MET; concentration-dependent sensorgrams fitted by a 1:1 binding model). Details: both partners purified.
T2 construct: MET, hepatocyte growth factor receptor, a receptor tyrosine kinase; ectodomain; also called MET-Fc; Fc-tagged MET

Binder	Kd [µM]
B9	0.031
{CH2CO}-YIEWNRFNSKLWNCNCCG-NH2 (thioether N-17; cysteine pairing not given here) [macrocyclic peptide 10-4]	0.308

The binders below were run against T3, ectodomain of MET fused to Fc (UniProt P08581 25-932) (assay: SPR; fitted by a 1:1 binding model; who was immobilised and the conditions are in the Supporting Information (not shown)). Details: both partners purified.
T3 construct: MET (hepatocyte growth factor receptor), a receptor tyrosine kinase; also called MET-Fc; Fc-tagged MET

Binder	koff [s⁻¹]	Kd [µM]
{CH2CO}-YFYYNWTNVAKWAKTLCG (thioether N-17 (inferred)) [6–2]	0.0074	
B8	0.00254	
B6		0.0112
{CH2CO}-YNCLWVECKIVLPNGRCG (disulfide 8-17; thioether N-3) [12–4]	0.00721	

Reference: article PMC11950852, “Diversity Scale of Library Matters: Impact of mRNA Library Diversity Scales on the Discovery of Macrocyclic Peptides Targeting a Protein by the RaPID System” (ACS Central Science, 2025)
